This note sets out measurements from patent US20230183753A1 (INTELLIA THERAPEUTICS, published 2023).

In this assay the target is WT1 peptide … (VLD peptide) pulsed on OCI-AML3 target cells. Briefly: cell-based or functional assay.

B1: WT1 targeting transgenic T cell receptor (tgTCR) (TCR, V domains shown)
V domain 1: DAGVIQSPRHEVTEMGQEVTLRCKPISGHDYLFWYRQTMMRGLELLIYFNNNVPIDDSGMPEDRFSAKMPNASFSTLKIQPSEPRDSAVYFCASRKTGGYSNQPQHFGDGTRLSILE
V domain 2: SQQPVQSPQAVILREGEDAVINCSSSKALYSVHWYRQKHGEAPVFLMILLKGGEQKGHEKISASFNEKKQQSSLYLTASQLSYSGTYFCGTAWINDYKLSFGAGTTVTVRA
In the case of B1, the “Cumulative Fold Change in T cell number after stimulation 1 with OCI-AML3 cells pulsed with 500 nM VLD peptide, EP + AAV engineered T cells” value turned out to be 7.9 fold; the “Cumulative Fold Change in T cell number after stimulation 1 with OCI-AML3 cells pulsed with 500 nM VLD peptide, LNP + AAV engineered T cells” value turned out to be 7.2 fold; the “Cumulative Fold Change in T cell number after stimulation 2 with OCI-AML3 cells pulsed with 500 nM VLD peptide, EP + AAV engineered T cells” value amounted to 19 fold; the “Cumulative Fold Change in T cell number after stimulation 2 with OCI-AML3 cells pulsed with 500 nM VLD peptide, LNP + AAV engineered T cells” value stood at 34.2 fold. For the same molecule, the “Cumulative Fold Change in T cell number after stimulation 3 with OCI-AML3 cells pulsed with 500 nM VLD peptide, EP + AAV engineered T cells” value was 27.1 fold and the “Cumulative Fold Change in T cell number after stimulation 3 with OCI-AML3 cells pulsed with 500 nM VLD peptide, LNP + AAV engineered T cells” value was 120 fold.
